Results as given in US20250339569A1 (3B PHARMACEUTICALS, published 2025).
One block for each binder: values may come before it. Starred links: 1 amine or outer side, 2 acyl side, 3 side chain; linkers in the order of their positions; H or OH if unused. Positions of bridges follow the written chain, without caps; N, C: chain ends. Non-standard residues stand in square brackets, D forms with d. Groups on a side chain read outwards from the residue. Primed or numbered codes have the meaning given here. *: point of attachment. DOTA = O=C(O)CN1CCN(CC(=O)O)CCN(CC(=O)*)CCN(CC(=O)O)CC1; Ttds(3) = NCCCOCCOCCOCCCNC(=O)CCC(=O)*; mXylylene = c1cc(C[*:1])cc(C[*:2])c1; Propanoyl(3-OH) = O=C(CCO)*; Isovaleryl = CC(C)CC(=O)*; Nle = CCCC[C@H](N)C(=O)O; 4Amc = not defined here; Apr = not defined here; AEEA = NCCOCCOCC(=O)O; Nlys = NCCCCNCC(=O)O; Sar = CNCC(=O)O

Biological target: human carbonic anhydrase 9 (CAIX) (human, UniProt Q16790 38-459)
Assay: FACS competition on HT-29 cells against tracer 3BP-2776; pIC50 category A = pIC50 >8.0

- pIC50: > 8 pic50
B4: 3BP-3740 (peptide)
peptide: Isovaleryl-YCE[dP]DWLTWE([Apr-AEEA-DOTA])C-NH2
modifications: linker 2-11 via 3MeBn; reading uncertain
notes: also called Iva-Tyr-[Cys(3MeBn)-Glu-pro-Asp-Trp-Leu-Thr-Trp-Glu(NH-Apr-O2Oc-DOTA′)-Cys]-NH2

- pIC50: > 8 pic50
B5: 3BP-3728 (peptide)
peptide: Isovaleryl-ECE[dP]DWLTWSC-NH2
modifications: linker 2-11 via 3MeBn
notes: also called Iva-Glu-[Cys(3MeBn)-Glu-pro-Asp-Trp-Leu-Thr-Trp-Ser-Cys]-NH2

- pIC50: > 8 pic50
B6: 3BP-3842 (peptide)
peptide: {Propanoyl(3-OH)}-YCE[dP]DWLTWE([Apr-DOTA])C-NH2
modifications: linker 2-11 via mXylylene; reading uncertain
notes: also called 3OHPr-Tyr-[Cys(3MeBn)-Glu-pro-Asp-Trp-Leu-Thr-Trp-Glu(NH-Apr-DOTA′)-Cys]-NH2

- pIC50: > 8 pic50
B7: 3BP-3727 (peptide)
peptide: Isovaleryl-DCE[dP]DWLTWSC-NH2
modifications: linker 2-11 via 3MeBn
notes: also called Iva-Asp-[Cys(3MeBn)-Glu-pro-Asp-Trp-Leu-Thr-Trp-Ser-Cys]-NH2

- pIC50: > 8 pic50
B8: 3BP-3841 (peptide)
peptide: Ac-YCE[dP]DWLTWE([Apr-DOTA])C-NH2
modifications: linker 2-11 via 3MeBn; reading uncertain
notes: also called Ac-Tyr-[Cys(3MeBn)-Glu-pro-Asp-Trp-Leu-Thr-Trp-Glu(NH-Apr-DOTA′)-Cys]-NH2

- pIC50: > 8 pic50
B11: 3BP-3870 (peptide)
peptide: {DOTA-Ttds(3)}-[Nle]YCE[dP]DWLTWSC-NH2
modifications: linker 3-12 via mXylylene
notes: also called DOTA-Ttds-Nle-Tyr-[Cys(3MeBn)-Glu-pro-Asp-Trp-Leu-Thr-Trp-Ser-Cys]-NH2

- pIC50: > 8 pic50
B14: 3BP-3868 (peptide)
peptide: {DOTA-4Amc}-YCE[dP]DWLTWSC-NH2
modifications: linker 2-11 via mXylylene; reading uncertain
notes: also called DOTA-4Amc-Tyr-[Cys(3MeBn)-Glu-pro-Asp-Trp-Leu-Thr-Trp-Ser-Cys]-NH2

The remaining lines, values behind:

B1: 3BP-3859 (peptide)
peptide: {DOTA}-YCE[dP]DWLTWSC-NH2
modifications: linker 2-11 via mXylylene
SMILES: CC(C)C[C@@H]1NC(=O)[C@H](Cc2c[nH]c3ccccc23)NC(=O)[C@H](CC(=O)O)NC(=O)[C@H]2CCCN2C(=O)[C@H](CCC(=O)O)NC(=O)[C@@H](NC(=O)[C@H](Cc2ccc(O)cc2)NC(=O)CN2CCN(CC(=O)O)CCN(CC(=O)O)CCN(CC(=O)O)CC2)CSCc2cccc(c2)CSC[C@@H](C(N)=O)NC(=O)[C@H](CO)NC(=O)[C@H](Cc2c[nH]c3ccccc23)NC(=O)[C@H]([C@@H](C)O)NC1=O
notes: also called DOTA-Tyr-[Cys(3MeBn)-Glu-pro-Asp-Trp-Leu-Thr-Trp-Ser-Cys]-NH2
- pIC50: > 8 pic50

B2: 3BP-3569 (peptide)
peptide: Isovaleryl-YCE[dP]DWLTWSC-NH2
modifications: linker 2-11 via mXylylene
SMILES: CC(C)CC(=O)N[C@@H](Cc1ccc(O)cc1)C(=O)N[C@H]1CSCc2cccc(c2)CSC[C@@H](C(N)=O)NC(=O)[C@H](CO)NC(=O)[C@H](Cc2c[nH]c3ccccc23)NC(=O)[C@H]([C@@H](C)O)NC(=O)[C@H](CC(C)C)NC(=O)[C@H](Cc2c[nH]c3ccccc23)NC(=O)[C@H](CC(=O)O)NC(=O)[C@H]2CCCN2C(=O)[C@H](CCC(=O)O)NC1=O
notes: also called Iva-Tyr-[Cys(3MeBn)-Glu-pro-Asp-Trp-Leu-Thr-Trp-Ser-Cys]-NH2
- pIC50: > 8 pic50

B3: 3BP-3743 (peptide)
peptide: Isovaleryl-SCE[dP]DWLTWE([Apr-AEEA-DOTA])C-NH2
modifications: linker 2-11 via 3MeBn; reading uncertain
notes: also called Iva-Ser-[Cys(3MeBn)-Glu-pro-Asp-Trp-Leu-Thr-Trp-Glu(NH-Apr-O2Oc-DOTA′)-Cys]-NH2
- pIC50: > 8 pic50

B9: 3BP-3742 (peptide)
peptide: Isovaleryl-FCE[dP]DWLTWE([Apr-AEEA-DOTA])C-NH2
modifications: linker 2-11 via 3MeBn; reading uncertain
notes: also called Iva-Phe-[Cys(3MeBn)-Glu-pro-Asp-Trp-Leu-Thr-Trp-Glu(NH-Apr-O2Oc-DOTA′)-Cys]-NH2
- pIC50: > 8 pic50

B10: 3BP-3060 (peptide)
peptide: Ac-VYCE[Sar]DWLTWQC-NH2
modifications: linker 3-12 via mXylylene
SMILES: CC(=O)N[C@H](C(=O)N[C@@H](Cc1ccc(O)cc1)C(=O)N[C@H]1CSCc2cccc(c2)CSC[C@@H](C(N)=O)NC(=O)[C@H](CCC(N)=O)NC(=O)[C@H](Cc2c[nH]c3ccccc23)NC(=O)[C@H]([C@@H](C)O)NC(=O)[C@H](CC(C)C)NC(=O)[C@H](Cc2c[nH]c3ccccc23)NC(=O)[C@H](CC(=O)O)NC(=O)CN(C)C(=O)[C@H](CCC(=O)O)NC1=O)C(C)C
notes: also called Ac-Val-Tyr-[Cys(3MeBn)-Glu-Nmg-Asp-Trp-Leu-Thr-Trp-Gln-Cys]-NH2
- pIC50: > 8 pic50

B12: 3BP-3869 (peptide)
peptide: {DOTA-AEEA}-YCE[dP]DWLTWSC-NH2
modifications: linker 2-11 via mXylylene
SMILES: CC(C)C[C@@H]1NC(=O)[C@H](Cc2c[nH]c3ccccc23)NC(=O)[C@H](CC(=O)O)NC(=O)[C@H]2CCCN2C(=O)[C@H](CCC(=O)O)NC(=O)[C@@H](NC(=O)[C@H](Cc2ccc(O)cc2)NC(=O)COCCOCCNC(=O)CN2CCN(CC(=O)O)CCN(CC(=O)O)CCN(CC(=O)O)CC2)CSCc2cccc(c2)CSC[C@@H](C(N)=O)NC(=O)[C@H](CO)NC(=O)[C@H](Cc2c[nH]c3ccccc23)NC(=O)[C@H]([C@@H](C)O)NC1=O
notes: also called DOTA-O2Oc-Tyr-[Cys(3MeBn)-Glu-pro-Asp-Trp-Leu-Thr-Trp-Ser-Cys]-NH2
- pIC50: > 8 pic50

B13: 3BP-3562 (peptide)
peptide: Ac-VYCE[Nlys](DOTA)DWLTWAC-NH2
modifications: linker 3-12 via mXylylene
notes: also called Ac-Val-Tyr-[Cys(3MeBn)-Glu-Nlys(DOTA)-Asp-Trp-Leu-Thr-Trp-Ala-Cys]-NH2
- pIC50: > 8 pic50
